Patent US20240376151A1, “STAPLED PEPTIDES AND METHODS THEREOF” (FOG PHARMACEUTICALS, INC., priority 2022, published 2024)
Ends that are not written are not given here.

Target: T1, RNF31 PUB domain (Homo sapiens, UniProt Q96EP0)
T1 construct: MBP-TEV (N, cleaved yes); made in house; host or cells: E. coli BL21 (DE3) pLysS
T1 sequence (Q96EP0 1-179): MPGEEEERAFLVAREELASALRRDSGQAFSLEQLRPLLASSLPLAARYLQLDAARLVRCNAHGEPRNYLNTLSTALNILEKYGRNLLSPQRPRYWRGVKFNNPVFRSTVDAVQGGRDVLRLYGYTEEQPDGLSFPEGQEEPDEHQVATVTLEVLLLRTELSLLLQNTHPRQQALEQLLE
Assay: Phage Library Screening with NGS, RNF31 PUB domain
Type: binding
Settings: for Phage library screen NGS readout, Target Concentration 10 / Phage library screen NGS readout, Target Concentration 30 / Phage library screen NGS readout, Target Concentration 100 / Phage library screen NGS readout, Target Concentration 300 / Phage library screen NGS readout, Target Concentration 1000: RNF31 PUB domain clusters C41-C45; for Phage library screen NGS readout, BLANK: clusters C41-C45

[1] = target concentration 1000, first column
[2] = target concentration 1000, second column

| Sequence | Phage library screen NGS readout, Target Concentration 10 | Phage library screen NGS readout, Target Concentration 30 | Phage library screen NGS readout, Target Concentration 100 | Phage library screen NGS readout, Target Concentration 300 | Phage library screen NGS readout, Target Concentration 1000 [1] | Phage library screen NGS readout, Target Concentration 1000 [2] | Phage library screen NGS readout, BLANK (column 1 of 5) | Phage library screen NGS readout, BLANK (column 2 of 5) | Phage library screen NGS readout, BLANK (column 3 of 5) | Phage library screen NGS readout, BLANK (column 4 of 5) | Phage library screen NGS readout, BLANK (column 5 of 5) |
| --- | --- | --- | --- | --- | --- | --- | --- | --- | --- | --- | --- |
| DPAYSLCISAAVECTYY | 0 | 1 | 0 | 2 | 6 | 7 | 0 | 0 | 0 | 0 | 0 |
| DPAFWACLYAAEECVVD | 0 | 0 | 0 | 3 | 6 | 9 | 1 | 0 | 0 | 0 | 1 |
| DPAMIDCFLAAQVCATY (not fully specified; cysteine pairing not given here) | 0 | 0 | 0 | 1 | 6 | 6 | 0 | 0 | 0 | 0 | 0 |
| DPAWWNCLYAADECWSW | 0 | 0 | 0 | 3 | 13 | 6 | 0 | 0 | 1 | 0 | 0 |
| DPAEDWCMYAAWDCQME | 1 | 0 | 0 | 4 | 22 | 10 | 0 | 0 | 0 | 0 | 0 |
| DPARDWCLYAAYDCYTA (Ac-DPARDWCLYAAYDCYTA-NH2; not fully specified (bridges); cysteine pairing not given here) | 0 | 0 | 4 | 61 | 350 | 353 | 1 | 0 | 3 | 1 | 0 |
| DPAEWDCLYAAFDCFAN | 2 | 2 | 0 | 3 | 15 | 7 | 0 | 0 | 0 | 0 | 0 |
| DPAWTQCDWAALYCEDQ | 0 | 1 | 0 | 1 | 7 | 10 | 0 | 0 | 0 | 0 | 0 |
| DPAIYQCSLAADICSTY | 1 | 3 | 3 | 3 | 7 | 8 | 2 | 2 | 0 | 0 | 0 |
| DPAYRDCDWAALYCDDF | 0 | 0 | 1 | 2 | 12 | 12 | 0 | 3 | 0 | 0 | 1 |
